Measured values from patent US20170313769A1 (Pfizer, published 2017).

Assays:
Human IFNω = Human IFNω (human, UniProt P05000 24-195); assay: plate ELISA, human IFNω coated at 5 µg/mL
Mouse IFNβ = Mouse IFNβ (mouse, UniProt P01575 22-182); assay: plate ELISA, mouse IFNβ coated at 1 µg/mL
[1] = target: T1, Human IFNβ (mature human interferon beta) (human, UniProt P01574 22-187); assay: SPR, Biacore T200; antibody amine-coupled on CM5 chip, human IFNβ as analyte, 1:1 model
T1 construct: Recombinant human IFNβ (Peprotech for SPR); In some functional assays it is endogenous IFNβ secreted by primary human cells; also called hIFN-β; recombinant human IFNβ

Human IFNγ = target: T2, Human IFNγ (human, UniProt P01579 24-166, limits assumed); assay: plate ELISA, IFNγ coated at 5 µg/mL
T2 construct: also called IFNγ (type II)
T2 sequence (looked up): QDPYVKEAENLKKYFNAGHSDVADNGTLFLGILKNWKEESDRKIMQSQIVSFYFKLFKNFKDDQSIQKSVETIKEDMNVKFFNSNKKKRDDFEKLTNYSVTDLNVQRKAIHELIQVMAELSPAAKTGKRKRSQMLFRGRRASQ

[2] = target: T1, Human IFNβ (mature human interferon …); assay: ELISA (summary value); human IFNβ
Rabbit IFNβ = target: T3, Rabbit IFNβ (rabbit); assay: plate ELISA, rabbit IFNβ coated at 10 ng/mL
T3 chain: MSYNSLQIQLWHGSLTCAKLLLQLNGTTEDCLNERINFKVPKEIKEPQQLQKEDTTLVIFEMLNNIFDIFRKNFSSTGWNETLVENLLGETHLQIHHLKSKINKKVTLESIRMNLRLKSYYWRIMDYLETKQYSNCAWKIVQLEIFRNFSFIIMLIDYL

CID1276 = target: T4, CID1276 (human (IFNβ with IFNα sequence inserted), UniProt P01574 22-187); assay: cell-based or functional assay
T4 chain: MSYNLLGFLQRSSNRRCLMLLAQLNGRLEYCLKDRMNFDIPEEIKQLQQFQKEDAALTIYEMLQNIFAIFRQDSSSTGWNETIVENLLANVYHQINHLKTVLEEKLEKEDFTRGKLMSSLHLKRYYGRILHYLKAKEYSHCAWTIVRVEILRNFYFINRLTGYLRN

CID1287 = target: T5, CID1287 (human (IFNβ with IFNα sequence inserted), UniProt P01574 22-187); assay: cell-based or functional assay
T5 chain: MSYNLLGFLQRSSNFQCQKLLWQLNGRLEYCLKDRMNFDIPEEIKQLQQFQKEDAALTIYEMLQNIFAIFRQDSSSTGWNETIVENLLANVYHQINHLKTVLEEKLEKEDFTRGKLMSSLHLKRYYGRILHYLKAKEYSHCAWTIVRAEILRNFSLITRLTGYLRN

CID1277 = target: T6, CID1277 (human (IFNβ with IFNα sequence inserted), UniProt P01574 22-187); assay: cell-based or functional assay
T6 chain: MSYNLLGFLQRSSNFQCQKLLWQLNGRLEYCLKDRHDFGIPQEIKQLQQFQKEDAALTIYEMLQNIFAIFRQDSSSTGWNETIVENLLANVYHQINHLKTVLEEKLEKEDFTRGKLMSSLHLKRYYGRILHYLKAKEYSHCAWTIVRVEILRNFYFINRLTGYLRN

CID1280 = target: T7, CID1280 (human (IFNβ with IFNα sequence inserted), UniProt P01574 22-187); assay: cell-based or functional assay
T7 chain: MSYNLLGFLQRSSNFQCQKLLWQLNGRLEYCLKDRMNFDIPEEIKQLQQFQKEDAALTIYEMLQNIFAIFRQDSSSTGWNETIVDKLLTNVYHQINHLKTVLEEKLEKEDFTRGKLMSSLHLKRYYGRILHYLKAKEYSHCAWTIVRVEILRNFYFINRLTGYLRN

CID1285 = target: T8, CID1285 (human (IFNβ with IFNα sequence inserted), UniProt P01574 22-187); assay: cell-based or functional assay
T8 chain: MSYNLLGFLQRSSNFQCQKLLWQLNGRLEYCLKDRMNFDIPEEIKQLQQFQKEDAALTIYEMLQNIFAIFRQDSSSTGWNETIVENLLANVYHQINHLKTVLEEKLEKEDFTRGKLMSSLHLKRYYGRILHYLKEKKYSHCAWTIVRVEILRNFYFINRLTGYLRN

[3] = target: T1, Human IFNβ (mature human interferon …); assay: cell-based or functional assay
[4] = target: T1, Human IFNβ (mature human interferon …); assay: SPR (affinity maturation); after affinity maturation (four light chain mutations)
Cynomolgus monkey IFNβ [5] = target: T9, Cynomolgus monkey IFNβ (cynomolgus monkey, UniProt O77812 22-187); assay: ELISA (summary value); cynomolgus monkey IFNβ
T9 construct: also called cyno-IFNβ

[6] = target: T1, Human IFNβ (mature human interferon …); assay: cell-based or functional assay; remark: listed apart in the source
[7] = target: T1, Human IFNβ (mature human interferon …); assay: plate ELISA, human IFNβ coated at 5 µg/mL, antibody titrated from 30 nM
[8] = target: T1, Human IFNβ (mature human interferon …); assay: cell-based or functional assay; remark: listed apart in the source
[9] = target: T1, Human IFNβ (mature human interferon …); assay: SPR, Biacore T200; CTI-AF1 immobilized on CM5 chip, human IFNβ (Peprotech) 10 to 0.078125 nM, 1:1 model
Cynomolgus monkey IFNβ [10] = target: T9, Cynomolgus monkey IFNβ; assay: plate ELISA, cynomolgus IFNβ coated at 5 µg/mL, antibody titrated from 30 nM

T9 sequence (O77812 22-187): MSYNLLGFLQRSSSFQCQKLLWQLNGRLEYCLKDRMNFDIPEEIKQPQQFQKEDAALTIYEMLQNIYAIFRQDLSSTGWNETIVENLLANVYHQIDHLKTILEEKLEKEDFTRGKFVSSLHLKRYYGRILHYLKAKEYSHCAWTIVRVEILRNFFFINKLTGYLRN
Chain of Mouse IFNβ (P01575 22-182): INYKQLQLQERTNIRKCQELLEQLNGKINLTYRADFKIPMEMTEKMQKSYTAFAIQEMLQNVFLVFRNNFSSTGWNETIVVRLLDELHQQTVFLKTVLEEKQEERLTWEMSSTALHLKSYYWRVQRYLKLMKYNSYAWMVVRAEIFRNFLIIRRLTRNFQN
Chain of Human IFNω (P05000 24-195): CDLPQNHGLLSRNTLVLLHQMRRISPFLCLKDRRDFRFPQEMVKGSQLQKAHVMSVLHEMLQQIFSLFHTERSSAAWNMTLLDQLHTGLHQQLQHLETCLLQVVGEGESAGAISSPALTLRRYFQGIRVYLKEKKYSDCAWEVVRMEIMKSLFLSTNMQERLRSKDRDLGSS

B1: CTI-AF1 (antibody, human IgG1, kappa, V domains shown)
VH: QVQLVQSGAEVKKPGSSVKVSCKASGYTFSRYWMHWVRQAPGQGLEWMGHIDPSDSYTYYNQKFKGRVTITADESTSTAYMELSSLRSEDTAVYYCARWDYGNLLFEYWGQGTLVTVSS
VL: DIQMTQSPSSLSASVGDRVTITCRTSQDIGNYLNWYQQKPGKAFKLLIYSTSRLHSGVPSRFSGSGSGTDFTLTISSLQPEDFATYYCQQGIILPITFGGGTKVEIKR
notes: Humanized IgG1; The C-terminal K of the heavy chain is printed as optional, '(K)'; also called anti-IFNβ antibody; humanized IgG1 antibody against interferon beta
binding result (Human IFNω): no binding
binding result (Mouse IFNβ): no binding
Kd [1]: 0.036 nM
binding result (Human IFNγ): no binding
EC50 [2]: 0.0153 nM
EC50 (Rabbit IFNβ): 2.95 nM
IC50 (nM), neutralization of type I IFN-induced STAT1 phosphorylation (CID1276): 0.2 nM
IC50 (nM), neutralization of type I IFN-induced STAT1 phosphorylation (CID1287): 0.3 nM
IC50 (nM), neutralization of type I IFN-induced STAT1 phosphorylation (CID1277): 0.3 nM
IC50 (nM), neutralization of type I IFN-induced STAT1 phosphorylation (CID1280): 47.7 nM
IC50 (nM), neutralization of type I IFN-induced STAT1 phosphorylation (CID1285): 0.4 nM
IC50 (nM), neutralization of type I IFN-induced STAT1 phosphorylation [3]: 0.3 nM
Kd [4]: 0.029 nM
EC50 (Cynomolgus monkey IFNβ [5]): 0.025 nM
IC50, IFNβ induced luciferase activity in HEK293 ISRE-Luc cells [6]: 0.0288 nM
IC50, M×A (M×1) gene expression in human dermal fibroblasts stimulated with recombinant IFNβ [6]: 0.0294 nM
IC50, inhibition of IFNβ induced STAT1 phosphorylation in U937 cells (phosflow) [6]: 0.0298 nM
IC50, neutralization of IFNβ induced STAT1 phosphorylation [6]: 0.0077 nM
EC50 [7]: 0.0151 nM
IC50 (pM) ISRE Neutralization [8]: 2 pM
IC50 (pM) pSTAT1 Inhibition [8]: 4 pM
Kd [9]: 0.0367 nM
EC50 (Cynomolgus monkey IFNβ [10]): 0.0247 nM
